Substrate in data set [1]: O=C1O[C@H]([C@@H](O)CO)C(O)=C1O
The experiment in a line: purified protein. To be noted: H2O2 co-substrate (true Km from kcat app vs [AscA]), 50 mM sodium acetate pH 5.0, 25 °C, no polysaccharide, ping-pong. In kind it is biochemical, Streptomyces coelicolor.

Substrate in data set [2]: O=C1O[C@H]([C@@H](O)CO)C(O)=C1O
As to the kind of experiment: purified protein. In kind it is biochemical, Neurospora crassa. To be noted: H2O2 co-substrate (true Km from kcat app vs [AscA]), 50 mM sodium acetate pH 5.0, 25 °C, no polysaccharide, ping-pong.

B1: ScAA10C (Streptomyces coelicolor A3(2)) (protein)
chain: HGVAMMPGSRTYLCQLDAKTGTGALDPTNPACQAALDQSGATALYNWFAVLDSNAGGRGAGYVPDGTLCSAGDRSPYDFSAYNAARSDWPRTHLTSGATIPVEYSNWAAHPGDFRVYLTKPGWSPTSELGWDDLELIQTVTNPPQQGSPGTDGGHYYWDLALPSGRSGDALIFMQWVRSDSQENFFSCSDVVFDGGNGEVTGIRGSGSTPDPDPTPTPTDPTTPPTHTGSCMAVYSVENSWSGGFQGSVEVMNHGTEPLNGWAVQWQPGGGTTLGGVWNGSLTSGSDGTVTVRNVDHNRVVPPDGSVTFGFTATSTGNDFPVDSIGCVAP
notes: copper-saturated; eps280 75,775; called ScAA10A by slip in places
Broadly, the Km is the concentration of substrate that gives half-maximal velocity. One may read the kcat as the number of substrate molecules converted per active site and unit of time at saturation. Usually kcat/Km stands for the second-order rate constant that governs catalysis at low substrate concentration. With B1, in data set [1], the Michaelis constant (Km) is 25 ± 2 µM, the kcat amounted to 0.64 ± 0.02 s⁻¹ and the kcat/Km worked out at 21000 ± 2000 M⁻¹ s⁻¹.

B2: NcAA9C (Neurospora crassa OR74A) (protein)
chain: HTIFQKVSVNGADQGQLKGIRAPANNNPVTDVMSSDIICNAVTMKDSNVLTVPAGAKVGHFWGHEIGGAAGPNDADNPIAASHKGPIMVYLAKVDNAATTGTSGLKWFKVAEAGLSNGKWAVDDLIANNGWSYFDMPTCIAPGQYLMRAELIALHNAGSQAGAQFYIGCAQINVTGGGSASPSNTVSFPGAYSASDPGILINIYGGSGKTDNGGKPYQIPGPALFTCPAGGSGGSSPAPATTASTPKPTSASAPKPVSTTASTPKPTNGSGSGTGAAHSTKCGGSKPAATTKASNPQPTNGGNSAVRAAALYGQCGGKGWTGPTSCASGTCKFSNDWYSQCLP
notes: N-terminal His not methylated; copper-saturated; eps280 46,910
On to B2, for which, in data set [2], the Michaelis-Menten constant (Km) is 145 ± 4 µM, the kcat is 5.3 ± 0.1 s⁻¹ and the kcat/Km is 36000 ± 1000 M⁻¹ s⁻¹.

These data come from paper PMC10458328, “The “life-span” of lytic polysaccharide monooxygenases (LPMOs) correlates to the number of turnovers in the reductant peroxidase reaction” (The Journal of Biological Chemistry, 2023).
